# Measurements: patent US20260226190A1 (CITY OF HOPE, published 2026)
# T1: Human prostate stem cell antigen (PSCA) expressed on RM9-hPSCA murine prostate cancer cells (human, UniProt O43653 12-83)
# T1 construct: RM9 cells transduced with human PSCA; also called RM9-hPSCA cells
# T1 sequence: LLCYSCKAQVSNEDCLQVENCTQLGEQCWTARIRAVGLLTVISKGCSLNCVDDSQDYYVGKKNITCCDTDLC
# T2: Recombinant human PSCA-mouse Fc fusion protein (human; mouse, UniProt O43653 12-83, limits assumed)
# T2 construct: Those marks are not visible here; also called hPSCA-mFc; human PSCA-murine Fc fusion protein; not shown: mouse Fc
# T2 sequence: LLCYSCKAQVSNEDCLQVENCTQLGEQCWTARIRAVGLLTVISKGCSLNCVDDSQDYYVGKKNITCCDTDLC
# What was measured:
# BSA = molecular target: T3, BSA (UniProt P02769 25-607); assay: ELISA, BSA-coated control wells
# T3 construct: Control coating in the ELISA; also called bovine serum albumin (control coating)
# T3 sequence (P02769 25-607 limits assumed): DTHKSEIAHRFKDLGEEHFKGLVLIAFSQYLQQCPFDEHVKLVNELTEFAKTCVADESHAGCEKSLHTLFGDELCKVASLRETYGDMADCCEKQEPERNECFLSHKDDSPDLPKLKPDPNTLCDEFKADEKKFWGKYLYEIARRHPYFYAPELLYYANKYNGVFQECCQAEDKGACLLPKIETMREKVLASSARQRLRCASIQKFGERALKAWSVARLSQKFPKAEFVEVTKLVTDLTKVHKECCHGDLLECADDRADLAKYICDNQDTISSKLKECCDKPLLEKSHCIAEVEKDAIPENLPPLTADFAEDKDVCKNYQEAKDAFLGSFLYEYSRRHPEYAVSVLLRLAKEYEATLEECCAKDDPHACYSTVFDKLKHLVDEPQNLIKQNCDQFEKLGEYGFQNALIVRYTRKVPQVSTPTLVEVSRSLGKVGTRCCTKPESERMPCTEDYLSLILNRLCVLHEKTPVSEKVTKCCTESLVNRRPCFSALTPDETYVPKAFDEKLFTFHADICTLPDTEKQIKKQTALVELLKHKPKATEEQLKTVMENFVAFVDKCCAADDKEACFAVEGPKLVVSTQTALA
# Description: (§1) Specificity and affinity of antigen binding was further evaluated by performing saturation binding on immobilized antigen in ELISA. Recombinant human PSCA-mouse Fc fusion protein (hPSCA-mFc, produced in house) was immobilized (1 μg/mL, 100 µL/well in PBS overnight at 4° C.). Serial dilutions of anti-PSCA scFvFc's ([…]) were incubated for 1 h at RT and after washing bound antibody fragments were detected using goat anti-human IgG-Fc-AP antibody (1:10,000) and pNPP substrate (alkaline phosphatase yellow, liquid substrate, Sigma-Aldrich P7998). The enzymatic reaction was stopped using 50 μL 2M NaOH and absorbance was red at 405 nm in an SpectraMax M2 microplane reader. Specific binding was fitted using the “one site-specific binding” equation to determine the Kd (ligand concentration that binds half the antigen sites at equilibrium) and Bₘₐₓ (maximum number of binding sites).
# The purified proteins were tested for specific binding to recombinant antigen by ELISA on immobilized human PSCA-mouse Fc protein. Dose-dependent binding was detected for wells coated with hPSCA-mFc and no non-specific binding was detected in BSA coated control wells.
# [1] = molecular target: T1, Human prostate stem cell antigen (PSCA) …; assay: saturation binding on PSCA-expressing cells
# Description: (§2) The resulting saturation binding curves were fitted (one-site specific binding, GraphPad Prism) to determine Kd and Bₘₐₓ from four independent experiments. […] (FIG. 6)
# Two novel anti-PSCA scFv-Fc variants (A2SM, A2aG) were designed, produced, and purified (FIG. 1). SDS-PAGE and SEC analysis confirmed purity and dimeric self-assembly. […] A2SM was successfully radiolabeled with ⁸⁹Zr (efficiency: >90%, purity >99%, n=2) resulting in a specific activity of ~0.17 MBq/μg (FIG. 2). […] Therefore, the novel A2SM could deliver a higher cytotoxic dose to the tumor while the liver remains the dose-limiting organ.
# [2] = molecular target: T2, Recombinant human PSCA-mouse Fc fusion …; assay: ELISA saturation binding on immobilized hPSCA-mFc, one site-specific binding fit (EC50=Kd), n=3
# Description: as §1
# [3] = molecular target: T1, Human prostate stem cell antigen (PSCA) …; assay: flow cytometry saturation binding on RM9-hPSCA cells, one-site specific binding fit, four independent experiments
# Description: as §2
# [4] = molecular target: T2, Recombinant human PSCA-mouse Fc fusion …; assay: ELISA saturation binding on hPSCA-mFc (value given for the 'previous' variant)
Binder,binding result (BSA),Kd [1] [nM],Kd [2] [nM],Kd [3] [nM],Kd [4] [nM]
"A2scFv-Fc2 SM (anti-PSCA A2 scFv-Fc2 single mutant, H310A, with K322A) (Fc fusion, Homodimeric scFv-Fc of about 110 kDa, glycosylated, made in FreeStyle 293-F cells; I could not check whether that entry includes a leader peptide from the pSecTag2A vector; also called A2SM; A2scFv-Fc2-SM w/K322A) EVQLVESGGGLVQPGGSLRLSCAASGFNIKDYYIHWVRQAPGKGLEWVAWIDPEYGDSEFVPKFQGRATMSADTSKNTAYLQMNSLRAEDTAVYYCKTGGFWGRGTLVTVSSGGGGSGGGGSGGSAQDIQLTQSPSSLSASVGDRVTITCSASSSVRFIHWYQQKPGKAPKRLIYDTSKLASGVPSRFSGSGSGTDFTLTISSLQPEDFATYYCQQWGSSPFTFGQGTKVEIKVECPPCPAPPVAGPSVFLFPPKPKDTLMISRTPEVTCVVVDVSHEDPEVQFNWYVDGMEVHNAKTKPREEQFNSTFRVVSVLTVVAQDWLNGKEYKCAVSNKGLPAPIEKTISKTKGQPREPQVYTLPPSREEMTKNQVSLTCLVKGFYPSDIAVEWESNGQPENNYKTTPPMLDSDGSFFLYSKLTVDKSRWQQGNVFSCSVMHEALHNHYTQKSLSLSPGK",no binding,3.3,0.59,3.74,
"A2scFv-Fc2 (anti-PSCA A2 scFv-Fc2 without FcRn-site mutations) (Fc fusion, also called A2Fc2) EVQLVESGGGLVQPGGSLRLSCAASGFNIKDYYIHWVRQAPGKGLEWVAWIDPEYGDSEFVPKFQGRATMSADTSKNTAYLQMNSLRAEDTAVYYCKTGGFWGRGTLVTVSSGGGGSGGGGSGGSAQDIQLTQSPSSLSASVGDRVTITCSASSSVRFIHWYQQKPGKAPKRLIYDTSKLASGVPSRFSGSGSGTDFTLTISSLQPEDFATYYCQQWGSSPFTFGQGTKVEIKVECPPCPAPPVAGPSVFLFPPKPKDTLMISRTPEVTCVVVDVSHEDPEVQFNWYVDGMEVHNAKTKPREEQFNSTFRVVSVLTVVHQDWLNGKEYKCKVSNKGLPAPIEKTISKTKGQPREPQVYTLPPSREEMTKNQVSLTCLVKGFYPSDIAVEWESNGQPENNYKTTPPMLDSDGSFFLYSKLTVDKSRWQQGNVFSCSVMHEALHNHYTQKSLSLSPGK",,,,,0.5

# More lines, now with the values ahead:
binding result (BSA),Kd [1] [nM],Kd [2] [nM],Kd [3] [nM],Kd [4] [nM],Binder
,,,,0.8,"A2scFv-Fc2 DM (anti-PSCA A2 scFv-Fc2 double mutant, H310A/H435Q) (Fc fusion) EVQLVESGGGLVQPGGSLRLSCAASGFNIKDYYIHWVRQAPGKGLEWVAWIDPEYGDSEFVPKFQGRATMSADTSKNTAYLQMNSLRAEDTAVYYCKTGGFWGRGTLVTVSSGGGGSGGGGSGGSAQDIQLTQSPSSLSASVGDRVTITCSASSSVRFIHWYQQKPGKAPKRLIYDTSKLASGVPSRFSGSGSGTDFTLTISSLQPEDFATYYCQQWGSSPFTFGQGTKVEIKVECPPCPAPPVAGPSVFLFPPKPKDTLMISRTPEVTCVVVDVSHEDPEVQFNWYVDGMEVHNAKTKPREEQFNSTFRVVSVLTVVAQDWLNGKEYKCKVSNKGLPAPIEKTISKTKGQPREPQVYTLPPSREEMTKNQVSLTCLVKGFYPSDIAVEWESNGQPENNYKTTPPMLDSDGSFFLYSKLTVDKSRWQQGNVFSCSVMHEALHNQYTQKSLSLSPGK"
no binding,3.1,0.8,3.28,,"A2scFv-Fc2 DMaG (anti-PSCA A2 scFv-Fc2 double mutant aglycosylated, H310A/H435Q, N297Q, with K322A) (Fc fusion, I could not check whether that entry includes a leader peptide; also called A2DMaG; A2scFv-Fc2-DMaG w/K322A) EVQLVESGGGLVQPGGSLRLSCAASGFNIKDYYIHWVRQAPGKGLEWVAWIDPEYGDSEFVPKFQGRATMSADTSKNTAYLQMNSLRAEDTAVYYCKTGGFWGRGTLVTVSSGGGGSGGGGSGGSAQDIQLTQSPSSLSASVGDRVTITCSASSSVRFIHWYQQKPGKAPKRLIYDTSKLASGVPSRFSGSGSGTDFTLTISSLQPEDFATYYCQQWGSSPFTFGQGTKVEIKVECPPCPAPPVAGPSVFLFPPKPKDTLMISRTPEVTCVVVDVSHEDPEVQFNWYVDGMEVHNAKTKPREEQFQSTFRVVSVLTVVAQDWLNGKEYKCAVSNKGLPAPIEKTISKTKGQPREPQVYTLPPSREEMTKNQVSLTCLVKGFYPSDIAVEWESNGQPENNYKTTPPMLDSDGSFFLYSKLTVDKSRWQQGNVFSCSVMHEALHNQYTQKSLSLSPGK"
